Format in all cases: biochemical, Escherichia coli
Common to all, as to details: other: malate, pH 7.5, 30° C., average of at least two independent experiments

Substrate in data set [1]: O=C(O)C[C@H](O)C(=O)O
Briefly: Malate kinase assay, LysC E119P. Here is the method: (§1) Enzymatic assay: Aspartate or malate kinase activities were assayed by coupling ADP production in the kinase reactions to NADH oxidation in the presence of phosphoenolpyruvate, pyruvate kinase, and lactate dehydrogenase.
(§2) Aspartate (or Malate) Kinase aspartate (or malate)+ATP→4-phospho-(L)-aspartate (or 4-phospho-(L)-malate)+ADP
(§3) The assay mixture contained 50 mM Hepes (pH 7.5), 50 mM KCl, 5 mM MgCl2, 0.24 mM NADH, 0.96 mM ATP, 0.96 mM PEP, 9 μg/mL of lactate dehydrogenase (Sigma, L2500), 12.4 μg/mL pyruvate kinase (Sigma, P1506), and appropriate amounts of purified aspartate (malate) kinase. Reactions were started by adding 50 mM (L)-aspartate or (L)-malate. Enzymatic assays were carried out at 30° C. in 96-well flat bottomed microtiter plates in a final volume of 250 μL. The reactions were followed by the characteristic absorption of NADH at 340 nm in a microplate reader (BioRad 680XR).
(§4) Mutant enzymes were expressed, purified and tested for aspartate and malate kinase activity as described in Example 1.

Substrate in data set [2]: O=C(O)C[C@H](O)C(=O)O
The data set can be described thus: Malate kinase assay, LysC E119S. Here is the method:
as §1, §2, §3, §4

Substrate in data set [3]: O=C(O)C[C@H](O)C(=O)O
Briefly: Malate kinase assay, LysC E119T. Here is the method: as §1, §2, §3, §4

Substrate in data set [4]: O=C(O)C[C@H](O)C(=O)O
Briefly: Malate kinase assay, LysC E119Q. On the procedure: as §1, §2, §3, §4

B1: E. coli aspartate kinase LysC variant E119P, SEQ ID NO: 18 (Escherichia coli K-12; E119P) (protein)
chain: MSEIVVSKFGGTSVADFDAMNRSADIVLSDANVRLVVLSASAGITNLLVALAEGLEPGERFEKLDAIRNIQFAILERLRYPNVIREEIERLLENITVLAEAAALATSPALTDELVSHGPLMSTLLFVEILRERDVQAQWFDVRKVMRTNDRFGRAEPDIAALAELAALQLLPRLNEGLVITQGFIGSENKGRTTTLGRGGSDYTAALLAEALHASRVDIWTDVPGIYTTDPRVVSAAKRIDEIAFAEAAEMATFGAKVLHPATLLPAVRSDIPVFVGSSKDPRAGGTLVCNKTENPPLFRALALRRNQTLLTLHSLNMLHSRGFLAEVFGILARHNISVDLITTSEVSVALTLDTTGSTSTGDTLLTQSLLMELSALCRVEVEEGLALVALIGNDLSKACGVGKEVFGVLEPFNIRMICYGASSHNLCFLVPGEDAEQVVQKLHSNLFE
For B1, in data set [1], the Km (usually the concentration of substrate that gives half-maximal velocity) came out at 19.0 mM and the Vmax – broadly, the rate approached at saturating substrate – was determined as 0.71 µmol/mg/min.

B2: E. coli aspartate kinase LysC variant E119S, SEQ ID NO: 22 (Escherichia coli K-12; E119S) (protein)
chain: MSEIVVSKFGGTSVADFDAMNRSADIVLSDANVRLVVLSASAGITNLLVALAEGLEPGERFEKLDAIRNIQFAILERLRYPNVIREEIERLLENITVLAEAAALATSPALTDELVSHGSLMSTLLFVEILRERDVQAQWFDVRKVMRTNDRFGRAEPDIAALAELAALQLLPRLNEGLVITQGFIGSENKGRTTTLGRGGSDYTAALLAEALHASRVDIWTDVPGIYTTDPRVVSAAKRIDEIAFAEAAEMATFGAKVLHPATLLPAVRSDIPVFVGSSKDPRAGGTLVCNKTENPPLFRALALRRNQTLLTLHSLNMLHSRGFLAEVFGILARHNISVDLITTSEVSVALTLDTTGSTSTGDTLLTQSLLMELSALCRVEVEEGLALVALIGNDLSKACGVGKEVFGVLEPFNIRMICYGASSHNLCFLVPGEDAEQVVQKLHSNLFE
B2: in data set [2], the Km was 15.7 mM and the Vmax came to 0.83 µmol/mg/min.

B3: E. coli aspartate kinase LysC variant E119T, SEQ ID NO: 24 (Escherichia coli K-12; E119T) (protein)
chain: MSEIVVSKFGGTSVADFDAMNRSADIVLSDANVRLVVLSASAGITNLLVALAEGLEPGERFEKLDAIRNIQFAILERLRYPNVIREEIERLLENITVLAEAAALATSPALTDELVSHGTLMSTLLFVEILRERDVQAQWFDVRKVMRTNDRFGRAEPDIAALAELAALQLLPRLNEGLVITQGFIGSENKGRTTTLGRGGSDYTAALLAEALHASRVDIWTDVPGIYTTDPRVVSAAKRIDEIAFAEAAEMATFGAKVLHPATLLPAVRSDIPVFVGSSKDPRAGGTLVCNKTENPPLFRALALRRNQTLLTLHSLNMLHSRGFLAEVFGILARHNISVDLITTSEVSVALTLDTTGSTSTGDTLLTQSLLMELSALCRVEVEEGLALVALIGNDLSKACGVGKEVFGVLEPFNIRMICYGASSHNLCFLVPGEDAEQVVQKLHSNLFE
For B3, in data set [3], the Km came out at 26.8 mM and the Vmax amounted to 0.33 µmol/mg/min.

B4: E. coli aspartate kinase LysC variant E119Q, SEQ ID NO: 20 (Escherichia coli K-12; E119Q) (protein)
chain: MSEIVVSKFGGTSVADFDAMNRSADIVLSDANVRLVVLSASAGITNLLVALAEGLEPGERFEKLDAIRNIQFAILERLRYPNVIREEIERLLENITVLAEAAALATSPALTDELVSHGQLMSTLLFVEILRERDVQAQWFDVRKVMRTNDRFGRAEPDIAALAELAALQLLPRLNEGLVITQGFIGSENKGRTTTLGRGGSDYTAALLAEALHASRVDIWTDVPGIYTTDPRVVSAAKRIDEIAFAEAAEMATFGAKVLHPATLLPAVRSDIPVFVGSSKDPRAGGTLVCNKTENPPLFRALALRRNQTLLTLHSLNMLHSRGFLAEVFGILARHNISVDLITTSEVSVALTLDTTGSTSTGDTLLTQSLLMELSALCRVEVEEGLALVALIGNDLSKACGVGKEVFGVLEPFNIRMICYGASSHNLCFLVPGEDAEQVVQKLHSNLFE
Turning to B4, in data set [4], the Km is 39.9 mM and the Vmax was found to be 0.01 µmol/mg/min.
